# Measurements reported in patent publication US20100104603A1 (published 2010).
# Ends that are not written are not given here.
# T1: Staphylococcal superantigen-like protein 5 (SSL5) of S. aureus strain NTCT 8325, recombinant (Staphylococcus aureus strain NTCT 8325, UniProt A0A0H3K6Z6 31-234)
# T1 sequence: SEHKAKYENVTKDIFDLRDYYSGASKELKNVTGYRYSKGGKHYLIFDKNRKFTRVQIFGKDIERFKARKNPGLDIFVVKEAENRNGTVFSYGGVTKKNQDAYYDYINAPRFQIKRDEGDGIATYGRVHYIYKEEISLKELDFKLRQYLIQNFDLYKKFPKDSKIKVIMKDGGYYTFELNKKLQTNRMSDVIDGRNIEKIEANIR
# T2: IL-8 (UniProt P10145 28-99)
# T2 construct: also called biotin-labeled IL-8
# T2 sequence: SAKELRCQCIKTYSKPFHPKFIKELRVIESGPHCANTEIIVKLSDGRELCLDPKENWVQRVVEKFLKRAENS
# Assays:
# [1] = molecular target: T1, Staphylococcal superantigen-like …
# IL-8 = molecular target: T2, IL-8; experiment: ELISA: IL-8-coated wells, PSGL-1/Ig without SSL5
binder,measurement,setting,value
"QATEYEYLDYDFLPETEPPEMLRNSTDTTPLTGPGTPESTTVEPAAR (Fc fusion, ends and bridges not checked; also: fused to Ig Fc part, also called rPSGL/Ig; not shown: Ig/Fc part) [recombinant human PSGL-1-Fc construct (PSGL-1/Ig fusion protein)]",Kd,[1],820 nM
same,binding result,IL-8,no binding (tested: 1 µg/ml)
